Results published in US10500249B2, “Compositions and methods for preventing or treating diseases, conditions, or processes characterized by aberrant fibroblast proliferation and extracellular matrix deposition” (MOERAE MATRIX, INC., priority 2014, dated 2019).

Tests used:
Test in all cases: Kinase Profiling Assay
Format in all cases: biochemical
Settings in all cases: 100 μM
[1] = target: T1, CDK3/cyclinE (h) (Homo sapiens, UniProt Q00526)
T1 construct: purchased Millipore
In short: (§1)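 In this 266-kinase specificity panel, every measurement was duplicated. Transfer of labeled phosphate from ATP to a cationic substrate was quantified after the substrate adhered to an anionic filter membrane and was scintillation-counted, then related to a full-activity control.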

[2] = target: MARK1 (h) (Homo sapiens, UniProt Q9P0L2)
In short: as §1

[3] = target: T2, ARK5 (h) (Homo sapiens, UniProt O60285)
T2 sequence (O60285 1-661): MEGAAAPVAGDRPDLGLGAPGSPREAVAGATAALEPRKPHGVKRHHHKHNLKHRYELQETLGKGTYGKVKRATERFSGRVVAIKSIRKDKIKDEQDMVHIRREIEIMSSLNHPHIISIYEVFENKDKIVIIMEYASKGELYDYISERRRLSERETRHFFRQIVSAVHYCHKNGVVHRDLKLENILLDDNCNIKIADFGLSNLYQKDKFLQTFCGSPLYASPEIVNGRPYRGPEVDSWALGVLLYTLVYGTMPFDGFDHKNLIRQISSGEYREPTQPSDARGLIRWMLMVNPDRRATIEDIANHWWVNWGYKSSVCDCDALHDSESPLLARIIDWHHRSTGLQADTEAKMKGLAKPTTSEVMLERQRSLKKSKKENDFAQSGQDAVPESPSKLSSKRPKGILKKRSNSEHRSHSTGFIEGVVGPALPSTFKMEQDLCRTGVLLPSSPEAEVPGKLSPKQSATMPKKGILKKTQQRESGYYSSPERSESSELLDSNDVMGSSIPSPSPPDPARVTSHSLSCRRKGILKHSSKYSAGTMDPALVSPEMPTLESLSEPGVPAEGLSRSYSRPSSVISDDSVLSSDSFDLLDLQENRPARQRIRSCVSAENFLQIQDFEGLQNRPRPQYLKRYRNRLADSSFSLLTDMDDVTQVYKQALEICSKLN
In short: as §1

[4] = target: T3, Itk (h) (Homo sapiens, UniProt Q08881)
T3 construct: purchased Millipore
T3 sequence (Q08881 1-620): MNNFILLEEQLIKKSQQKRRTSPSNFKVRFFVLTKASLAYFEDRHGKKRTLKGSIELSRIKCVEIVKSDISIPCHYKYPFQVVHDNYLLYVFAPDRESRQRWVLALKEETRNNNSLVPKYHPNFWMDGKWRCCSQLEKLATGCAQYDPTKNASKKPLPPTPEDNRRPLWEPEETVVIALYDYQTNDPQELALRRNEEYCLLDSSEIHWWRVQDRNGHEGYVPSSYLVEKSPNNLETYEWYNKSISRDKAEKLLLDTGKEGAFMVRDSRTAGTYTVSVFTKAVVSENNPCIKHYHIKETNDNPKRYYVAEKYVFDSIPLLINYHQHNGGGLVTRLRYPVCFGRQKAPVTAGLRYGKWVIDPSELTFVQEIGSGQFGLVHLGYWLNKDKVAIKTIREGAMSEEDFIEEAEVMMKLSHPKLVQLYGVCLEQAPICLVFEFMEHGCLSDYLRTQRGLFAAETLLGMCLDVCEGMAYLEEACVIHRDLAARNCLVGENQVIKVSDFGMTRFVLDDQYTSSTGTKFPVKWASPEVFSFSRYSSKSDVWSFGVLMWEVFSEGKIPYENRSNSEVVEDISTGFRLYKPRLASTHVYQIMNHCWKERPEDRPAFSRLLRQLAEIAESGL
In short: as §1

[5] = target: T4, IKKβ (h) (Homo sapiens, UniProt O14920)
T4 construct: purchased Millipore
T4 sequence (O14920 1-756): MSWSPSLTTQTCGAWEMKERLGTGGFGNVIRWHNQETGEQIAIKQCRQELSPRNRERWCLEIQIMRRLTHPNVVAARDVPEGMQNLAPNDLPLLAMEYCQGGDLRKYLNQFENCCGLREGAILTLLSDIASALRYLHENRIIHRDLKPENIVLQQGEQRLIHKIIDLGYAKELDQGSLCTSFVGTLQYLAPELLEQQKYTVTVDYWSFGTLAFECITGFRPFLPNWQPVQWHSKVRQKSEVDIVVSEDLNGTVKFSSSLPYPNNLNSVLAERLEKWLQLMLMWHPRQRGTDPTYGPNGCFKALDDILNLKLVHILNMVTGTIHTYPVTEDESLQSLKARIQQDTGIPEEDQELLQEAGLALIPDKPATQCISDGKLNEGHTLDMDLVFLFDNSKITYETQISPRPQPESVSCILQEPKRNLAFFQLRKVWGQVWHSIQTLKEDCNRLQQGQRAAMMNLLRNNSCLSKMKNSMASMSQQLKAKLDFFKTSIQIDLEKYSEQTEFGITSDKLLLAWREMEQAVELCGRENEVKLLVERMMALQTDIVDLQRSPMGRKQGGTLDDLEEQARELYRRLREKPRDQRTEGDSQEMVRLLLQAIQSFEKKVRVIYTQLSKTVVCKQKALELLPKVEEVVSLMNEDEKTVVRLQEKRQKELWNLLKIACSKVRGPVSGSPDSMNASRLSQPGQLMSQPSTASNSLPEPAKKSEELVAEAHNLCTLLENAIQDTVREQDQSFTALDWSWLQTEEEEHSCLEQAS
In short: as §1

[6] = target: T5, JAK2 (h) (Homo sapiens, UniProt O60674)
T5 construct: purchased Millipore
In short: as §1

[7] = target: T6, EGFR(L861Q) (h) (Homo sapiens, UniProt P00533, L861Q)
T6 construct: purchased Millipore
In short: as §1

[8] = target: Rsk2 (h) (Homo sapiens, UniProt P51812)
In short: as §1

[9] = target: Pyk2 (h) (Homo sapiens, UniProt Q14289)
In short: as §1

[10] = target: BTK (h) (Homo sapiens, UniProt Q06187)
In short: as §1

[11] = target: TLK2 (h) (Homo sapiens, UniProt Q86UE8)
In short: as §1

Pyk2 (h), sequence (Q14289 whole entry): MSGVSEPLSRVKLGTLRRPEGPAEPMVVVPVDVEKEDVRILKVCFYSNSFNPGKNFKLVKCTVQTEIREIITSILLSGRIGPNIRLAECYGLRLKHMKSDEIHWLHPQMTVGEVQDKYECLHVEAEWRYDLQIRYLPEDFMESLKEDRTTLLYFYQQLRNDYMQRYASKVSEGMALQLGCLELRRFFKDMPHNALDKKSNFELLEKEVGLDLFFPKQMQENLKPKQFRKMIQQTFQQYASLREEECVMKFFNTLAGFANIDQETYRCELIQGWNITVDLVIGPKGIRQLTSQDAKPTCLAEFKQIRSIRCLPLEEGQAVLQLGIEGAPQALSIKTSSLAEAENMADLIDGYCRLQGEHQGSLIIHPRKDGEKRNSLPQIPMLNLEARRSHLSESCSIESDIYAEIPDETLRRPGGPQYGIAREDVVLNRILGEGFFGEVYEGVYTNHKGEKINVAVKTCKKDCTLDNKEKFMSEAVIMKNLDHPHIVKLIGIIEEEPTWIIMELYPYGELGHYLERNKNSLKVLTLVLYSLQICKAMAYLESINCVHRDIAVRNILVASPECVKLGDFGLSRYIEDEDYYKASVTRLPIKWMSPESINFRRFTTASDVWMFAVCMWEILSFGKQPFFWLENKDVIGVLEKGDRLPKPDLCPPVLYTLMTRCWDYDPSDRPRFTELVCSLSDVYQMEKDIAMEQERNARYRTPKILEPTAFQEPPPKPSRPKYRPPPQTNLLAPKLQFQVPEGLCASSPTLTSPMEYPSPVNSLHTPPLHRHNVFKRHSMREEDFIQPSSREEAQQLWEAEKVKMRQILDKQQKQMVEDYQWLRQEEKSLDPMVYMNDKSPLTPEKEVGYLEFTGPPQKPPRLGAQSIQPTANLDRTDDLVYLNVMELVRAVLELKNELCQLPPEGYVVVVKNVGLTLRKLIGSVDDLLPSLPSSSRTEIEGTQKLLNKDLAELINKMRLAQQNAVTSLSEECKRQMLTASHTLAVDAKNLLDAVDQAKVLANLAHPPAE
T5 sequence (O60674 whole entry): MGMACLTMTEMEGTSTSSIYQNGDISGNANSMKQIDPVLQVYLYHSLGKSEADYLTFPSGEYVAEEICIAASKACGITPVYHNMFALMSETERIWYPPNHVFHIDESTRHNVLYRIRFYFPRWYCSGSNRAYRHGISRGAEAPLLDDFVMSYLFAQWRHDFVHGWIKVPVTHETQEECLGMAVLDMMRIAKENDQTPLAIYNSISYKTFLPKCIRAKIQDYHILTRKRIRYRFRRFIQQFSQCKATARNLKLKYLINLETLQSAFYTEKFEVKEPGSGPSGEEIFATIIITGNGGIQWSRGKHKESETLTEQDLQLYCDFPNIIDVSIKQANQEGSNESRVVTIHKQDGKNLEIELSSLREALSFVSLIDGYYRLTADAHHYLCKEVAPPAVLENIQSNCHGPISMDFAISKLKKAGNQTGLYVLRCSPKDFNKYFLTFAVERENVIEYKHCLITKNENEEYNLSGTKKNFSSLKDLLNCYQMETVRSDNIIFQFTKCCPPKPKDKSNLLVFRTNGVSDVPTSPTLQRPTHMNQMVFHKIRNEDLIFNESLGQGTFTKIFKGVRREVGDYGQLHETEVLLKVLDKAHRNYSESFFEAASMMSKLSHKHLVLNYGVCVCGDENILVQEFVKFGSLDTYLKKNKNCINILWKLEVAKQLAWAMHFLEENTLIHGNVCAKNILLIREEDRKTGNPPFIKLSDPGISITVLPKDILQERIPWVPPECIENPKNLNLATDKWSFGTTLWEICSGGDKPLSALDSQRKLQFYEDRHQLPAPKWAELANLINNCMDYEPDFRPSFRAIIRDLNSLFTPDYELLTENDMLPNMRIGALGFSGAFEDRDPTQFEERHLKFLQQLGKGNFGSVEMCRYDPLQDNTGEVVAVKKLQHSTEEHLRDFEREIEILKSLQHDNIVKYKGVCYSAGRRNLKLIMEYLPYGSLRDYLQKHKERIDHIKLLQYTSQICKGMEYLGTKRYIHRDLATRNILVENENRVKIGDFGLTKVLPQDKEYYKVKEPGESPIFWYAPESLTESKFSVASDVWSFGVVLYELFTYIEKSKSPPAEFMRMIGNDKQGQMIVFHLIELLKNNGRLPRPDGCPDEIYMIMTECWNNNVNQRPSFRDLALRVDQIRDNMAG
TLK2 (h), sequence (Q86UE8 whole entry): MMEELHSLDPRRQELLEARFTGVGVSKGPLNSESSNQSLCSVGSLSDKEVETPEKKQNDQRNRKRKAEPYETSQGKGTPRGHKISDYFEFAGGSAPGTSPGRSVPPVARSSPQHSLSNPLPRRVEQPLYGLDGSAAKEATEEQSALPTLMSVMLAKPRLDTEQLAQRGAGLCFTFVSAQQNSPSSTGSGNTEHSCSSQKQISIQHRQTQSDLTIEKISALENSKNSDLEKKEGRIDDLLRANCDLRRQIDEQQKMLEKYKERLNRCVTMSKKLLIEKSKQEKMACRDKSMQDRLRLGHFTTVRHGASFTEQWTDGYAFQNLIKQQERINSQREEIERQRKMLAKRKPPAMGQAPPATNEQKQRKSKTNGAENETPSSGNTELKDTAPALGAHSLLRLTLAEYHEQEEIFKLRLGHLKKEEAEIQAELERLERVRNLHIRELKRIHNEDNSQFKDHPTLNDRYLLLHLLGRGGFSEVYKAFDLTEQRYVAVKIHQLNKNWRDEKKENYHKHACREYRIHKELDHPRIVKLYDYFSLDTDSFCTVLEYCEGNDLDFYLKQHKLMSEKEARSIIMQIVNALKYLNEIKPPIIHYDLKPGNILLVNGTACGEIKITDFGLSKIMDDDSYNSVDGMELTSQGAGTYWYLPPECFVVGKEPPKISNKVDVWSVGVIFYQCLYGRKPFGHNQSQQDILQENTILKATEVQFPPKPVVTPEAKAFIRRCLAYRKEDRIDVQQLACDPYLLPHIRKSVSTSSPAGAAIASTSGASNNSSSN
T1 sequence (Q00526 whole entry): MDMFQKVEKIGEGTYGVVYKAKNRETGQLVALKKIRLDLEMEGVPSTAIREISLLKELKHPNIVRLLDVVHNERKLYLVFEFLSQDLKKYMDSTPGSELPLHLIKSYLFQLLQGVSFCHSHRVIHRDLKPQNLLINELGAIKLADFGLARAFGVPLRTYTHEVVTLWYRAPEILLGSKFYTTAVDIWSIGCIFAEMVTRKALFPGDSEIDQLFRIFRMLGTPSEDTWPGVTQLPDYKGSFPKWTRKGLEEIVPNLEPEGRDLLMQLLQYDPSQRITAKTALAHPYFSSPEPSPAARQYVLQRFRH
T1 sequence (P24864 whole entry partner): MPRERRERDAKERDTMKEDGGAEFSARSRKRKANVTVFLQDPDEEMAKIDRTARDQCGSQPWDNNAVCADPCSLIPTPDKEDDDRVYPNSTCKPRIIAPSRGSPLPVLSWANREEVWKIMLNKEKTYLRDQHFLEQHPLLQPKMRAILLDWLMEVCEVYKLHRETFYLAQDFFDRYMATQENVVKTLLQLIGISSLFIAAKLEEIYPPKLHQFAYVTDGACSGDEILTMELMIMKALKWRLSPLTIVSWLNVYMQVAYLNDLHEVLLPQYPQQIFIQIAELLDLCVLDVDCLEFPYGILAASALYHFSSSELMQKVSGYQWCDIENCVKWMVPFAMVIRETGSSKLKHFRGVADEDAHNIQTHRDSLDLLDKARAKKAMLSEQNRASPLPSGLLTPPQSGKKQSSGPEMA
MARK1 (h), sequence (Q9P0L2 whole entry): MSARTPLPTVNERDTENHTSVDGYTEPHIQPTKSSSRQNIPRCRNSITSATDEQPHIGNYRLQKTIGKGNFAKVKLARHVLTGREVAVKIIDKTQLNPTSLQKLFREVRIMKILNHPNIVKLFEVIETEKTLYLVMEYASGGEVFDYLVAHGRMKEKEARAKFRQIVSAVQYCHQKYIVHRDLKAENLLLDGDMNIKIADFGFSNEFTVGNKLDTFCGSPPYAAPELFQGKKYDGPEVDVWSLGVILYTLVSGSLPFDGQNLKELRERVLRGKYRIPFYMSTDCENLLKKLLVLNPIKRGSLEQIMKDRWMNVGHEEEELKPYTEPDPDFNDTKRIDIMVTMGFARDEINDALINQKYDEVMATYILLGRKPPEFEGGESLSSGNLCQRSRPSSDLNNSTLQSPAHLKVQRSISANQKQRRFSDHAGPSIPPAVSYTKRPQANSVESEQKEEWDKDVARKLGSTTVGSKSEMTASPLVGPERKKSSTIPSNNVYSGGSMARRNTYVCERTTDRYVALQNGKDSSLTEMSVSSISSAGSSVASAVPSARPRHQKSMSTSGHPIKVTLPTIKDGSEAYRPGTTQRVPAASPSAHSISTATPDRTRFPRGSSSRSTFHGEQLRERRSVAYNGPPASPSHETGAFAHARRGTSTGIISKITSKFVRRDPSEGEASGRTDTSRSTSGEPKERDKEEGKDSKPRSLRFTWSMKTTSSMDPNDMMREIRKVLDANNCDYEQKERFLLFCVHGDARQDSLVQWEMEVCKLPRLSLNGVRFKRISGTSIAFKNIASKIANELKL

| Sequence | % activity [1] | % activity [2] | % activity [3] | % activity [4] | % activity [5] | % activity [6] | % activity [7] | % activity [8] | % activity [9] | % activity [10] | % activity [11] |
| --- | --- | --- | --- | --- | --- | --- | --- | --- | --- | --- | --- |
| FAKLAARLYRKALARQLGVAA [MMI-0300] | 94% | 132% | 78% | 77% | 84% | 133% | 25% | 51% | 47% | – | – |
| HRRIKAWLKKIKALARQLGVAA (Mammalian) [MMI-0500] | 8% | 110% | 20% | 7% | 71% | 49% | 15% | 14% | 46% | 18% | 133% |
| KAFAKLAARLYRKALARQLGVAA [MMI-0400] | 92% | 120% | 69% | 63% | 84% | – | 22% | 38% | 34% | 94% | 151% |
| YARAAARQARAKALNRQLGVA (Mammalian) [MMI-0200] | – | – | 93% | 98% | – | 131% | 74% | 101% | 127% | 100% | 129% |
